Where two headings read alike, the source gives them in different places. Where a SMILES comes first, the peptide text is derived from it. [ ]: non-standard residue; d: D form. The star is where a group is joined. Sta = CC(C)C[C@H](N)[C@@H](O)CC(=O)O; Isovaleryl = CC(C)CC(=O)*
How the values were obtained:
cysteine proteases = settings: Yamashita and Konagaya (1996); cited from earlier work
[1] = biological target: proteases in extracts of adult western flower thrips (Frankliniella occidentalis); experiment: cell-based or functional assay
[2] = biological target: potato protease inhibitor-insensitive cysteine proteases of Colorado potato beetle (Leptinotarsa decemlineata) larval gut extracts; experiment: cell-based or functional assay
[3] = biological target: proteases in extracts of adult leafminer flies (Liriomyza trifolii); experiment: cell-based or functional assay
thrips protease activity = experiment: Protease activity of adult western flower thrips extract, FITC-hemoglobin; assay type: biochemical, Frankliniella occidentalis; design: inhibition of protease activity: concentration or dose not given beside the values; settings: for residual protease activity: thrips pH 3.5, equistatin purified from sea anemone; for inhibition of protease activity: thrips, pH 3.5
Experimental: (§1) Adult western flower thrips (Frankliniella occidentalis) and leafmirer flies (Liriomyza trifolii) adult were harvested from a culture maintained on chrysanthemum plants and complete thrips and flies were homogenized in extraction on buffer (200 mM β-alanine-HCl, pH 3.5) in a volume of 5 times the weight of the insects. The buffer pH was at the previously determined pH optimum of protease activity towards hemoglobin. Final instar Colorado potato beetle larvae maintained on potato plants as described in example 5 were checked for gut aspartic protease activity by preparing a total gut extract in pH 3 buffer which is optimal for Colorado potato beetle aspartic proteases (200 mM glycine, pH 3). Guts were homogenized in 100 μl buffer per gut. Third instar western corn rootworm larvae maintained on corn roots were used to remove the guts. Ten guts were homogenized in 100 μl water and spinned twice to remove insoluble material. Two types of buffers were used in the enzymatic assay. One with a pH presumably favoring cysteine proteases (50 mM MES, pH 6.5; 0.6 mg/ml L-cysteine) and one for detecting aspartic proteases (200 mM glycine, pH 3). Supernatants were stored at −20° C.
(§2) 2 μl gut extract was combined with 2 μl inhibitor (2 mM pepstatin in methanol, 4 mM E64 in water, 2 mg/ml recombinant equistatin in water. The concentration of the other proteinaceous inhibitors was not known exactly). Appropriate buffers were added to a final volume of 100 μl. After 15′ preincubation 20 μl substrate (5 mg/ml FITC-hemoglobin) was added and incubated for 30-45 min at 37 C.
(§3) Reaction was stopped by the addition of 100 μl 10% TCA. Tubes were centrifuged and 100 μl supernatant mixed with 100 μl 10 N NaOH was measured on a fluorimeter for the extent of hemoglobin hydrolysis. Measurements were done in duplicate on one (thrips, leafminer and western corn rootworm), or three (Colorado potato beetle) different gut extracts and varied by a maximum of +/−5%.

leafminer proteases = experiment: Protease activity of adult leafminer fly extract, FITC-hemoglobin; assay type: biochemical, Liriomyza trifolii; settings: for residual protease activity: leafminer pH 3.5, equistatin purified from sea anemone
Experimental: as §1, §2, §3

[4] = system: Colorado potato beetle proteases; experiment: Protease activity of Colorado potato beetle larval gut extract at pH 3, FITC-hemoglobin; assay type: biochemical, Leptinotarsa decemlineata; design: inhibition of total protease activity / increase of inhibition by addition of equistatin to E64 / increase of inhibition by addition of equistatin to pepstatin: concentration or dose not given beside the values; settings: for inhibition of total protease activity: Colorado potato beetle, pH3; for residual protease activity: colorado potato beetle pH 3, recombinant equistatin
Experimental: as §1, §2, §3

[5] = system: western corn rootworm cysteine and aspartic protease activity; experiment: Protease activity of western corn rootworm larval gut extract, FITC-hemoglobin; assay type: biochemical, Diabrotica virgifera; settings: recombinant equistatin
Experimental: as §1, §2, §3

[6] = system: Colorado potato beetle larval gut extracts (potato protease inhibitor-insensitive cysteine proteases); experiment: General proteolytic activity of Colorado potato beetle larval gut extracts, azocasein; assay type: biochemical, Leptinotarsa decemlineata
Text: (§4) Guts of final instar Colorado potato beetle larvae reared on methyl jasmonate induced plants were isolated and extracted essentially as described (Bolter and Jongsma, J. Insect Physiol. 41: 1071-1078). In these gut extracts the proteases that are sensitive to the protease inhibitors of potato are already complexed. The residual protease activity is composed of potato protease-inhibitor-insensitive proteases which were induced in response to the methyl jasmonate induced potato inhibitors. These proteases are the proteases that render the beetle larvae insensitive to protease inhibitor defense of the potato plant. Wle tested a broad range of different cysteisie protease inhibitors for activity specifically against these induced potato protease inhibitor-insensitive cysteine protesses. Nearly all of these inhibitors were purified at the Jozef Stefan Institute in Slovenia. Testing their potential against Colorado potato beetle was done using both general protein substrates (azocasein, table 2) as well as specific synthetic substrates (L-Arg-pNA, table 3; pGlu-Phe-Leu-pNA, table 4; Z-Phe-Arg-pNA, table 5; Z-Arg-Arg-pNA, table 6). In specific cases inhibitors were tested at two concentrations, eauimolar and in excess to the protease, in order to obtain an indication of the tightness of the complex. […] Importantly, this class of inhibitors was capable of inhibiting nearly all general cysteine protease activity. The equistatin peptide molecule and a functional derivative thereof were not very active against the aminopeptidase-like cysteine protease activity. […] The best combination of inhibitors for full toxicity against the Colorado potato beetle would therefore be a combination of equistatin or p41 invariant chain fragment and stefin-like inhibitors.

[7] = system: amino-peptidase activity of Colorado potato beetle larval gut extracts; experiment: Amino-peptidase activity of Colorado potato beetle gut extract, L-Arg-pNA; assay type: biochemical, Leptinotarsa decemlineata
Text: as §4

[8] = system: tri-peptidil-peptidase and endoprotease activity of Colorado potato beetle larval gut extracts; experiment: Tri-peptidil-peptidase and endoprotease activity of Colorado potato beetle gut extract, pGlu-Phe-Leu-pNA; assay type: biochemical, Leptinotarsa decemlineata
Text: as §4

[9] = system: endoprotease activity of Colorado potato beetle larval gut extracts; experiment: Broad spectrum endoprotease activity of Colorado potato beetle gut extract, Z-Phe-Arg-pNA; assay type: biochemical, Leptinotarsa decemlineata
Text: as §4

[10] = system: endoprotease activity of Colorado potato beetle larval gut extracts; experiment: Narrow spectrum endoprotease activity of Colorado potato beetle gut extract, Z-Arg-Arg-pNA; assay type: biochemical, Leptinotarsa decemlineata; settings: excess inhibitor
Text: as §4

papain [11] = biological target: T1, papain (UniProt P00784 134-345); experiment: continuous rate enzyme inhibition assay with papain
T1 construct: also called cysteine proteinase, papain
T1 sequence (looked up): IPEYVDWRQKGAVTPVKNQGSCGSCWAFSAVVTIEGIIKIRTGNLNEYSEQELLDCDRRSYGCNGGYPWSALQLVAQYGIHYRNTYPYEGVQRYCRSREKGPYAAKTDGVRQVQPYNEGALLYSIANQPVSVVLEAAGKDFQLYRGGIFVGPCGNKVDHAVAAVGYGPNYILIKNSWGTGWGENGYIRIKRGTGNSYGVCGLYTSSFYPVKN

cathepsin D [12] = biological target: T2, cathepsin D (Homo sapiens, UniProt P07339); experiment: steady state inhibition of cathepsin D hydrolysis of chromophoric substrate
cathepsin D [13] = biological target: T2, cathepsin D; experiment: as above; remark: listed apart in the source
papain [14] = biological target: T1, papain; experiment: continuous rate enzyme inhibition assay with papain; Ki = kd/ka

In the case of “thyroglobulin: protein containing type I repeated thyroglobulin domains [reference compound]”, the “inhibition of cysteine proteases” value (cysteine proteases) is listed as “do not inhibit”.

bean cystatin gave a residual protease activity (FITC-hemoglobin), pH 3.5 (% residual activity) [1] of 14.

“p41 invariant chain fragment (from UniProt P04233 194-258)” gave a residual amino-peptidase activity (L-Arg-pNA), equimolar inhibitor (% of residual activity) [2] of 85, a residual amino-peptidase activity (L-Arg-pNA), excess inhibitor (% of residual activity) [2] of 75 and a residual broad spectrum endoprotease activity (Z-Phe-Arg-pNA), equimolar inhibitor (% of residual activity) [2] of 30. For the same molecule, the residual broad spectrum endoprotease activity (Z-Phe-Arg-pNA), excess inhibitor (% of residual activity) [2] was 20, the residual general proteolytic activity (azocasein) in excess of inhibitor (% residual activity) [2] was 10 and the residual narrow spectrum endoprotease activity (Z-Arg-Arg-pNA), equimolar inhibitor (% of residual activity) [2] was 20. For the same molecule, the residual narrow spectrum endoprotease activity (Z-Arg-Arg-pNA), excess inhibitor (% of residual activity) [2] was -5, the residual tri-peptidil-peptidase and endoprotease activity (pGlu-Phe-Leu-pNA), equimolar inhibitor (% of residual activity) [2] was 10 and the residual tri-peptidil-peptidase and endoprotease activity (pGlu-Phe-Leu-pNA), excess inhibitor (% of residual activity) [2] was -5. It also gave a residual protease activity (FITC-hemoglobin), pH 3.5 (% residual activity) [3] of 43 and a residual protease activity (FITC-hemoglobin), pH 3.5 (% residual activity) [1] of 13.

For CC(C)C[C@H](NC(=O)[C@H]1O[C@@H]1C(=O)O)C(=O)NCCCCN=C(N)N (relative stereo) [E64, N-(L-3-trans carboxyoxiran-22-carbomyl)-L-leucyl-amido-4-guani-dobutane, reference compound], the residual protease activity (thrips protease activity) was 8%, the “inhibition of protease activity” value (thrips protease activity) was 92% and the “inhibition of protease activity” value (leafminer proteases; leafminer) was 73%. For the same molecule, the residual protease activity (leafminer proteases) was 27%, the “inhibition of total protease activity” value [4] was 24% and the residual protease activity [4] was 76%. It also gave a residual protease activity ([5]; western corn rootworm pH 3) of 35% and a residual protease activity ([5]; western corn rootworm pH 6.5) of 51%.

For CC(C)CC(=O)N[C@H](C(=O)N[C@H](C(=O)N[C@@H](CC(C)C)[C@@H](O)CC(=O)N[C@@H](C)C(=O)N[C@@H](CC(C)C)[C@@H](O)CC(=O)O)C(C)C)C(C)C [Pepstatin, reference compound] (Isovaleryl-VV[Sta]A[Sta]-OH), the residual protease activity (thrips protease activity) was 84%, the “inhibition of protease activity” value (thrips protease activity) was 16% and the residual protease activity (leafminer proteases) was 46%. For the same molecule, the “inhibition of total protease activity” value [4] was 82%, the residual protease activity [4] was 18% and the residual protease activity ([5]; western corn rootworm pH 3) was 45%. The residual protease activity ([5]; western corn rootworm pH 6.5) was 58%.

B1: human stefin A: Type I cystatin (protein, UniProt P01040 1-98, looked up)
Cystatin-A: MIPGGLSEAKPATPEIQEIVDKVKPQLEEKTNETYGKLEAVQYKTQVVAGTNYYIKVRAGDNKYMHLKVFKSLPGQNEDLVLTGYQVDKNKDDELTGF
For B1, the “Residual activity in excess of inhibitor” value [6] was 90%, the “% of residual activity, equimolar” value ([7]; equimolar) was 60% and the “% of residual activity, excess inhibitor” value ([7]; excess inhibitor) was 10%. The “% of residual activity, equimolar” value ([8]; equimolar) was 95%, the “% of residual activity, excess inhibitor” value ([8]; excess inhibitor) was 90% and the “% of residual activity, equimolar” value ([9]; equimolar) was 95%. For the same molecule, the “% of residual activity, excess inhibitor” value ([9]; excess inhibitor) was 80% and the “% of residual activity, excess inhibitor” value [10] was 90%.

B2: combined second and third domain of equistatin (eq d-2,3) (protein)
chain: AALTLCGMMGAIIVAVPGTCGPPSCLAAGSPAGVGCCASAGGCTCVALLGLGLGGTAGGGAPTCGAHLSGCGGAAILAHSASLAVGMPVPGCLGAGSTAPVGCTPSTGTCTCVAGGGVLVPGSAVAPLAPTC
With B2 the Ki (papain [11]) was > 1 µM, the Ki (cathepsin D [12]) was 0.0004 µM and the Ki (cathepsin D [13]) was > 0.0006 µM.

B3: first domain of equistatin (eq d-1) (protein)
chain: SLTLCGGLGASAASGLIGTTVPGCLGTGGPGGLGCTGSTGTCTCVAGAGLGILGTLIAGSPACSAAL
B3 showed a koff (papain [11]) of 0.0011 s⁻¹, a kon (papain [11]) of 1.8e+06 M⁻¹ s⁻¹ and a Ki (papain [14]) of 0.00061 µM. For the same molecule, the Ki (cathepsin D [12]) was > 1 µM and the Ki (cathepsin D [13]) was 1000 µM.
